Experimental findings from PMC9967328 (International Journal of Molecular Sciences, 2023) are described below.

Data set [1] deals with the molecule itself. The experiment in a line: SEC; analytical SEC, 10 µM enzyme loaded on Superdex 200 Increase 10/300, 50 mM HEPES pH 8.0, 150 mM NaCl, 20 µM PLP, samples incubated at 25 °C for 20 min; oligomeric state from the elution volume; the limits of K_Dtet-dim are of the step tetramer to dimers.
Data set [2] deals with the molecule itself. Described as above. The source holds these as a separate data set.

B1: human ornithine aminotransferase R154L pathogenic variant (enzyme)
chain: TSVATKKTVQGPPTSDDIFEREYKYGAHNYHPLPVALERGKGIYLWDVEGRKYFDFLSSYSAVNQGHCHPKIVNALKSQVDKLTLTSRAFYNNVLGEYEEYITKLFNYHKVLPMNTGVEAGETACKLALKWGYTVKGIQKYKAKIVFAAGNFWGRTLSAISSSTDPTSYDGFGPFMPGFDIIPYNDLPALERALQDPNVAAFMVEPIQGEAGVVVPDPGYLMGVRELCTRHQVLFIADEIQTGLARTGRWLAVDYENVRPDIVLLGKALSGGLYPVSAVLCDDDIMLTIKPGEHGSTYGGNPLGCRVAIAALEVLEEENLAENADKLGIILRNELMKLPSDVVTAVRGKGLLNAIVIKETKDWDAWKVCLRLRDNGLLAKPTHGDIIRFAPPLVIKEDELRESIEIINKTILSF
modifications: PLP on Lys292 (internal aldimine)
In the case of B1, the “stoichiometry N” value in data set [1] came to 2. Also, the Kd in data set [2] is above 10 µM.
